Common to all, as to assay: BIAcore
On the technique in general: Surface plasmon resonance follows binding to a sensor surface in real time, without labels.

In assay [1] the target is T1, recombinant human IL-12 (rhIL-12) (human, UniProt P29459 23-219; P29460 23-328).
T1 chain 1: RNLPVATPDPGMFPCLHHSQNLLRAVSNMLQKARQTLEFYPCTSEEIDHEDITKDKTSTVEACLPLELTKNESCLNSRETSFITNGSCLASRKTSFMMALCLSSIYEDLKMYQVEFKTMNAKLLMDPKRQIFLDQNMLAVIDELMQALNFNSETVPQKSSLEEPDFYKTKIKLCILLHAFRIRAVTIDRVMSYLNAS
T1 chain 2: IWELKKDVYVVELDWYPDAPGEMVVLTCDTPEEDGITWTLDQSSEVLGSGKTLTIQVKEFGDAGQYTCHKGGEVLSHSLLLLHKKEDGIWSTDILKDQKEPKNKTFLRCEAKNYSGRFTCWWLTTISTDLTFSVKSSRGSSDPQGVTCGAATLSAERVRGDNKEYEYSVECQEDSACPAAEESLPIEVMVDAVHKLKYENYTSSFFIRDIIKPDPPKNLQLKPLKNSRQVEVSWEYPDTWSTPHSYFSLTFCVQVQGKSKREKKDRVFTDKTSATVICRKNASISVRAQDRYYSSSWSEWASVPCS

Assay [2] concerns the target T2, recombinant human interleukin 12 (p40/p35 heterodimer) (human, UniProt P29460 23-328; P29459 23-219).
T2 chain 1: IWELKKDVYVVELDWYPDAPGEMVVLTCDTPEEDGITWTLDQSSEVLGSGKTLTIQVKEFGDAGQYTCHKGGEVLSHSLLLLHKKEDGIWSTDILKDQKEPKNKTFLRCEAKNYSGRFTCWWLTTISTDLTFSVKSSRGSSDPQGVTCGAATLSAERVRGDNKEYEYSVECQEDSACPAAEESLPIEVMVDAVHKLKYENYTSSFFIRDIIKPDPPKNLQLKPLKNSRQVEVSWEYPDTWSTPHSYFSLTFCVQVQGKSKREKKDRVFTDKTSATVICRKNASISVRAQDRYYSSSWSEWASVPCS
T2 chain 2: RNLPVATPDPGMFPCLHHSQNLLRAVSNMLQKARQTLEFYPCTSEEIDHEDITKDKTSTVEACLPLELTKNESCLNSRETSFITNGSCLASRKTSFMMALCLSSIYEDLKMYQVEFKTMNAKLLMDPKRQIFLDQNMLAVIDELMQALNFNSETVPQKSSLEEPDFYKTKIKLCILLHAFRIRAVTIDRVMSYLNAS

Assay [3] deals with T1, recombinant human IL-12 (rhIL-12).
For assay [4] the target is unchanged.

Like-named read-outs stand apart in the source and are kept apart here.

B1: Y61 L30 K (peptide)
chain: SGGRSNIGKNTVK
Regarding B1, the koff (usually a measure of how fast the partners let go of each other) in assay [1] is 0.000346 s⁻¹.

B2: Y61 H56 G (peptide)
chain: FIRYDGSGKYYADSVKG
On to B2, for which the koff in assay [2] came to 0.000272 s⁻¹.

B3: Y61 L32 R (peptide)
chain: SGGRSNIGSNRVK
Regarding B3, in assay [1], the off-rate constant (koff) was determined as 0.0069 s⁻¹.

B4: Y61 L31 S (peptide)
chain: SGGRSNIGSSTVK
As to B4, the koff in assay [1] was found to be 0.000392 s⁻¹.

B5: Y61 H58 P (peptide)
chain: FIRYDGSNKPYADSVKG
Turning to B5, the off-rate (koff) in assay [2] came out at 0.000628 s⁻¹.

B6: Y61 L31 T (peptide)
chain: SGGRSNIGSTTVK
Consider B6, for which the koff in assay [1] worked out at 0.000309 s⁻¹.

B7: Y61 L50 N (peptide)
chain: NNDQRPS
With B7, in assay [3], the koff was determined as 0.000305 s⁻¹.

B8: Y61 L50 K (peptide)
chain: KNDQRPS
Consider B8, for which the off-rate constant (koff) in assay [3] was 0.00243 s⁻¹.

B9: Y61 L31 E (peptide)
chain: SGGRSNIGSETVK
Consider B9, for which the koff in assay [1] turned out to be 0.000384 s⁻¹.

B10: Y61 H56 S (peptide)
chain: FIRYDGSSKYYADSVKG
In the case of B10, the off-rate constant (koff) in assay [2] is 0.000624 s⁻¹.

B11: Y61 L50 E (peptide)
chain: ENDQRPS
Consider B11, for which the koff in assay [3] came to 0.000617 s⁻¹.

B12: Y61 L50 P (peptide)
chain: PNDQRPS
In the case of B12, in assay [3], the koff was 0.00041 s⁻¹.

B13: Y61 L53 I (peptide)
chain: GNDIRPS
As for B13, in assay [3], the off-rate (koff) was determined as 0.000855 s⁻¹.

B14: Y61 H56 P (peptide)
chain: FIRYDGSPKYYADSVKG
B14: in assay [2], the off-rate (koff) was determined as 0.000299 s⁻¹.

B15: Y61 H56 F (peptide)
chain: FIRYDGSFKYYADSVKG
Turning to B15, the off-rate constant (koff) in assay [2] amounted to 0.000345 s⁻¹.

B16: Y61 L50 F (peptide)
chain: FNDQRPS
In the case of B16, the koff in assay [3] was 0.0348 s⁻¹.

B17: Y61 H56 Y (peptide)
chain: FIRYDGSYKYYADSVKG
Consider B17, for which the off-rate (koff) in assay [2] came to 0.00039 s⁻¹.

B18: Y61 H101 G (peptide)
chain: HGSHGN
Consider B18, for which the dissociation rate constant (koff) in assay [4] was determined as 0.00375 s⁻¹.

B19: Y61 L50 R (peptide)
chain: RNDQRPS
For B19, the koff in assay [3] is 0.000444 s⁻¹.

B20: Y61 L50 V (peptide)
chain: VNDQRPS
B20: the off-rate constant (koff) in assay [3] is 0.000385 s⁻¹.

B21: Y61 L50 C (peptide)
chain: CNDQRPS
For the molecule B21, the koff in assay [3] came to 0.000467 s⁻¹.

B22: Y61 H56 T (peptide)
chain: FIRYDGSTKYYADSVKG
For B22, the koff in assay [2] stood at 0.000235 s⁻¹.

B23: Y61 L31 Q (peptide)
chain: SGGRSNIGSQTVK
Regarding B23, the koff in assay [1] stood at 0.000292 s⁻¹.

B24: Y61 L53 Y (peptide)
chain: GNDYRPS
Turning to B24, the off-rate constant (koff) in assay [3] was found to be 0.000733 s⁻¹.

B25: Y61 L30 P (peptide)
chain: SGGRSNIGPNTVK
For the molecule B25, the dissociation rate constant (koff) in assay [1] was 0.00025 s⁻¹.

B26: Y61 L53 A (peptide)
chain: GNDARPS
In the case of B26, in assay [3], the koff was 0.000554 s⁻¹.

B27: Y61 L53 P (peptide)
chain: GNDPRPS
Consider B27, for which the koff in assay [3] came to 0.000974 s⁻¹.

B28: Y61 L50 Q (peptide)
chain: QNDQRPS
As to B28, in assay [3], the koff came out at 0.000348 s⁻¹.

B29: Y61 H58 L (peptide)
chain: FIRYDGSNKLYADSVKG
Take B29: in assay [2], the off-rate constant (koff) turned out to be 0.00073 s⁻¹.

B30: Y61 L31 K (peptide)
chain: SGGRSNIGSKTVK
Consider B30, for which, in assay [1], the koff was determined as 0.000331 s⁻¹.

B31: Y61 L53 R (peptide)
chain: GNDRRPS
As for B31, the koff in assay [3] stood at 0.000614 s⁻¹.

B32: Y61 L50 D (peptide)
chain: DNDQRPS
In the case of B32, the dissociation rate constant (koff) in assay [3] came to 0.000348 s⁻¹.

B33: Y61 L50 L (peptide)
chain: LNDQRPS
For B33, the koff in assay [3] is 0.000616 s⁻¹.

B34: Y61 H56 L (peptide)
chain: FIRYDGSLKYYADSVKG
Take B34: in assay [2], the off-rate (koff) came to 0.000264 s⁻¹.

B35: Y61 H58 E (peptide)
chain: FIRYDGSNKEYADSVKG
As for B35, the koff in assay [2] was found to be 0.000415 s⁻¹.

B36: Y61 H102 S (peptide)
chain: HGSHDS
In the case of B36, in assay [4], the koff amounted to 0.000325 s⁻¹.

B37: Y61 L53 T (peptide)
chain: GNDTRPS
For B37, the koff in assay [3] came to 0.000834 s⁻¹.

B38: Y61 L50 S (peptide)
chain: SNDQRPS
As to B38, in assay [3], the koff is 0.000286 s⁻¹.

B39: Y61 H102 H (peptide)
chain: HGSHDH
With B39, the koff in assay [4] amounted to 0.00018 s⁻¹.

B40: Y61 L30 R (peptide)
chain: SGGRSNIGRNTVK
B40: the dissociation rate constant (koff) in assay [1] is 0.000182 s⁻¹.

B41: Y61 H58 F (peptide)
chain: FIRYDGSNKFYADSVKG
On to B41, for which the koff in assay [2] worked out at 0.000794 s⁻¹.

B42: Y61 L32 H (peptide)
chain: SGGRSNIGSNHVK
For the molecule B42, the koff in assay [1] stood at 0.00026 s⁻¹.

B43: Y61 L50 M (peptide)
chain: MNDQRPS
As for B43, the koff in assay [3] is 0.000953 s⁻¹.

B44: Y61 L50 W (peptide)
chain: WNDQRPS
On to B44, for which the koff in assay [3] was determined as 0.000382 s⁻¹.

B45: Y61 L32 D (peptide)
chain: SGGRSNIGSNDVK
B45: the off-rate constant (koff) in assay [1] was found to be 0.000252 s⁻¹.

B46: Y61 H58 S (peptide)
chain: FIRYDGSNKSYADSVKG
As for B46, the koff in assay [2] amounted to 0.000941 s⁻¹.

B47: Y61 L53 S (peptide)
chain: GNDSRPS
Consider B47, for which the off-rate (koff) in assay [3] came to 0.000866 s⁻¹.

B48: Y61 L32 I (peptide)
chain: SGGRSNIGSNIVK
For B48, in assay [1], the off-rate constant (koff) is 0.00154 s⁻¹.

B49: Y61 H58 V (peptide)
chain: FIRYDGSNKVYADSVKG
B49: in assay [2], the dissociation rate constant (koff) was 0.000524 s⁻¹.

B50: Y61 L50 I (peptide)
chain: INDQRPS
On to B50, for which the koff in assay [3] is 0.0012 s⁻¹.

B51: Y61 L50 T (peptide)
chain: TNDQRPS
As for B51, the koff in assay [3] worked out at 0.000272 s⁻¹.

B52: Y61 H102 A (peptide)
chain: HGSHDA
For the molecule B52, the koff in assay [4] was found to be 0.000382 s⁻¹.

B53: Y61 L50 A (peptide)
chain: ANDQRPS
Turning to B53, the koff in assay [3] was 0.000372 s⁻¹.

B54: Y61 H56 I (peptide)
chain: FIRYDGSIKYYADSVKG
Consider B54, for which the koff in assay [2] was 0.000169 s⁻¹.

B55: Y61 H56 M (peptide)
chain: FIRYDGSMKYYADSVKG
Take B55: the off-rate (koff) in assay [2] was 0.000383 s⁻¹.

B56: Y61 H102 W (peptide)
chain: HGSHDW
Regarding B56, in assay [4], the koff turned out to be 0.000235 s⁻¹.

B57: Y61 H58 N (peptide)
chain: FIRYDGSNKNYADSVKG
Regarding B57, in assay [2], the koff worked out at 0.000831 s⁻¹.

B58: Y61 H58 I (peptide)
chain: FIRYDGSNKIYADSVKG
For the molecule B58, the koff in assay [2] stood at 0.000657 s⁻¹.

B59: Y61 L50 H (peptide)
chain: HNDQRPS
For B59, the off-rate constant (koff) in assay [3] is 0.000761 s⁻¹.

B60: Y61 H54 F (peptide)
chain: FIRYDFSNKYYADSVKG
For the molecule B60, in assay [2], the koff was determined as 0.000663 s⁻¹.

B61: Y61 H102 K (peptide)
chain: HGSHDK
As for B61, the koff in assay [4] is 0.000405 s⁻¹.

B62: Y61 H56 H (peptide)
chain: FIRYDGSHKYYADSVKG
Regarding B62, the koff in assay [2] was determined as 0.00042 s⁻¹.

These data come from patent US20110123544A1 (published 2011).
